Measured values from paper PMC9482650, “Quantitative fragmentomics allow affinity mapping of interactomes” (Nature Communications, 2022).

How the values were obtained:
Experiment in all cases: holdup assay
Set-up in all cases: key: below the threshold = too weak to quantify, mostly under pKd 3.1 to 4
MAGI2_3, Q86UL8 = target: MAGI2_3, Q86UL8
SNX27, Q96L92 = target: SNX27, Q96L92
Inadl_5, Q8NI35 = target: Inadl_5, Q8NI35
SNTB2, Q13425 = target: T1, SNTB2, Q13425; conditions: plain residues with an end cap or a label only (N-terminal biotin on a linker: ttds)
T1 sequence (Q13425 110-208, limits assumed, looked up): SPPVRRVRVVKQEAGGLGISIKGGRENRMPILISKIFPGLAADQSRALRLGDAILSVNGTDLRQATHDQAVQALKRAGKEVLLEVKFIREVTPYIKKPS

MAGI3_6, Q5TCQ9 = conditions: plain residues with an end cap or a label only (N-terminal biotin on a linker: ttds)
NHERF3_2, Q5T2W1 = target: T2, NHERF3_2, Q5T2W1; conditions: plain residues with an end cap or a label only (N-terminal biotin on a linker: ttds)
T2 sequence (Q5T2W1 129-225, limits assumed, looked up): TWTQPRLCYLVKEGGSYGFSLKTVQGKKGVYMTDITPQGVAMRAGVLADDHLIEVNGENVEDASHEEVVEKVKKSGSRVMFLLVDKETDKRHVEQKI

AHNAK2, Q8IVF2 = conditions: plain residues with an end cap or a label only (N-terminal biotin on a linker: ttds)
MAGI1_6, Q96QZ7 = conditions: plain residues with an end cap or a label only (N-terminal biotin on a linker: ttds)
MPP5, Q8N3R9 = target: T3, MPP5, Q8N3R9; conditions: plain residues with an end cap or a label only (N-terminal biotin on a linker: ttds)
T3 sequence (Q8N3R9 251-346, limits assumed, looked up): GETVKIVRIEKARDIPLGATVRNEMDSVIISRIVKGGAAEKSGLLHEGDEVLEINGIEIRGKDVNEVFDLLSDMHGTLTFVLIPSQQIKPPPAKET

LMO7, Q8WWI1 = conditions: plain residues with an end cap or a label only (N-terminal biotin on a linker: ttds)
SHANK3, Q9BYB0 = target: T4, SHANK3, Q9BYB0; conditions: plain residues with an end cap or a label only (N-terminal biotin on a linker: ttds)
T4 sequence (Q9BYB0 641-750, limits assumed, looked up): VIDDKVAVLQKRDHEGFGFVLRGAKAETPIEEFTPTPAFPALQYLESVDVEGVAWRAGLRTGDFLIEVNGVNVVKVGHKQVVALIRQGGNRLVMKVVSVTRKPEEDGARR

TJP1_1, Q07157 = conditions: plain residues with an end cap or a label only (N-terminal biotin on a linker: ttds)
PDZD2_4, O15018 = target: T5, PDZD2_4, O15018; conditions: plain residues with an end cap or a label only (N-terminal biotin on a linker: ttds)
T5 sequence (O15018 723-823, limits assumed, looked up): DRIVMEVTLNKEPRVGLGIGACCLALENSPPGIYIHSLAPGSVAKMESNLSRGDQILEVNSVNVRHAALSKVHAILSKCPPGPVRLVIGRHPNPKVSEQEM

PDZD2_6, O15018 = target: T6, PDZD2_6, O15018; conditions: plain residues with an end cap or a label only (N-terminal biotin on a linker: ttds)
T6 sequence (O15018 2745-2839, limits assumed, looked up): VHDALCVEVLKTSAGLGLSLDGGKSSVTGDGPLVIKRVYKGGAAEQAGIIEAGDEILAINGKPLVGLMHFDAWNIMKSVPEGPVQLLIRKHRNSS

PDZD9, Q8IXQ8 = conditions: plain residues with an end cap or a label only (N-terminal biotin on a linker: ttds)
RGS12, O14924 = target: T7, RGS12, O14924; conditions: plain residues with an end cap or a label only (N-terminal biotin on a linker: ttds)
T7 sequence (O14924 17-108, limits assumed, looked up): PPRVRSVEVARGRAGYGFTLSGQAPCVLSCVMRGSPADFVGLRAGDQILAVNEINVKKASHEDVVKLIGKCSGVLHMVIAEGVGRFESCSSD

PDZD2_3, O15018 = target: T8, PDZD2_3, O15018; conditions: plain residues with an end cap or a label only (N-terminal biotin on a linker: ttds)
T8 sequence (O15018 581-682, limits assumed, looked up): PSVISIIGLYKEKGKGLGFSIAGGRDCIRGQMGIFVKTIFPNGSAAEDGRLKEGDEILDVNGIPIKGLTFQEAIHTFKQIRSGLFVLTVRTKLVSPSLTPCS

RIMS2, Q9UQ26 = conditions: plain residues with an end cap or a label only (N-terminal biotin on a linker: ttds)
MLLT4, P55196 = target: T9, MLLT4, P55196; conditions: plain residues with an end cap or a label only (N-terminal biotin on a linker: ttds)
T9 sequence (P55196 1002-1103, limits assumed, looked up): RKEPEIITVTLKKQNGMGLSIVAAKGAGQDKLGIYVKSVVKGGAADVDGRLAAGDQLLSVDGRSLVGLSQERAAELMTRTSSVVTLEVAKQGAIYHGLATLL

PDZD11, Q5EBL8 = target: T10, PDZD11, Q5EBL8; conditions: plain residues with an end cap or a label only (N-terminal biotin on a linker: ttds)
T10 sequence (Q5EBL8 42-139, limits assumed, looked up): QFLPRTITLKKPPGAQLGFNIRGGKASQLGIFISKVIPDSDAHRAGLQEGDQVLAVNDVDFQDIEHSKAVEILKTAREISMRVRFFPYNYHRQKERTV

SYNPO2L, Q9H987 = target: T11, SYNPO2L, Q9H987; conditions: plain residues with an end cap or a label only (N-terminal biotin on a linker: ttds)
T11 sequence (Q9H987 1-98, limits assumed, looked up): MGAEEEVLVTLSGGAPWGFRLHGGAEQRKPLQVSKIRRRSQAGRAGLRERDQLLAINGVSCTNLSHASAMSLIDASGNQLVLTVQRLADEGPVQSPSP

CARD14, Q9BXL6 = conditions: plain residues with an end cap or a label only (N-terminal biotin on a linker: ttds)
PDZD8, Q8NEN9 = target: T12, PDZD8, Q8NEN9; conditions: plain residues with an end cap or a label only (N-terminal biotin on a linker: ttds)
T12 sequence (Q8NEN9 361-459, limits assumed, looked up): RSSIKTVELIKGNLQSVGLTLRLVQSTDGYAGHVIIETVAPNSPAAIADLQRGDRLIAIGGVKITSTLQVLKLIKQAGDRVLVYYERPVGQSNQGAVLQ

PDZD2_5, O15018 = target: T13, PDZD2_5, O15018; conditions: plain residues with an end cap or a label only (N-terminal biotin on a linker: ttds)
T13 sequence (O15018 2617-2716, limits assumed, looked up): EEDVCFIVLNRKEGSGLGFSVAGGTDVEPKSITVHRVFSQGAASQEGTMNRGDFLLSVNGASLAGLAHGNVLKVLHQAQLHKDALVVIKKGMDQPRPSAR

[1] = plain residues with an end cap or a label only (N-terminal biotin on a linker: ado-ado)
[2] = plain residues with an end cap or a label only (N-terminal biotin on a linker: ttds)
[3] = plain residues with an end cap or a label only (N-terminal biotin on a linker: ahx)
[4] = plain residues with an end cap or a label only (N-terminal biotin on a linker: gsgsgs; C-terminal amide)

TJP1_1, Q07157, sequence (Q07157 18-120): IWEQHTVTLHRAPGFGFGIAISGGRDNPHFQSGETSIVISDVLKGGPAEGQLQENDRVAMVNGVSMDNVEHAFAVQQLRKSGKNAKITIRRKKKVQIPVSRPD
Inadl_5, Q8NI35, sequence (Q8NI35 673-780): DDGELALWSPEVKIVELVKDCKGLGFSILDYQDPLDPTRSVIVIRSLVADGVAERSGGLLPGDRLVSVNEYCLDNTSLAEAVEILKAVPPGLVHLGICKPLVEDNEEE
MAGI3_6, Q5TCQ9, sequence (Q5TCQ9 1014-1103): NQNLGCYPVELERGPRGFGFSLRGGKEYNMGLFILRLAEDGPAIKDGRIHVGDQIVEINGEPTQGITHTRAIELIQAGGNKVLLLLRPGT
AHNAK2, Q8IVF2, sequence (Q8IVF2 108-193): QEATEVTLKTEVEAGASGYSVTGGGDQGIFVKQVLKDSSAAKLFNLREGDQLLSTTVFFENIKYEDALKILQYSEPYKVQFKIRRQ
CARD14, Q9BXL6, sequence (Q9BXL6 558-663): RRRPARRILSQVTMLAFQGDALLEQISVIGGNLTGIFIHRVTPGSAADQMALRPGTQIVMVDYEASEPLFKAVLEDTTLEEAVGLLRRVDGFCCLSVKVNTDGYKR
PDZD9, Q8IXQ8, sequence (Q8IXQ8 23-120): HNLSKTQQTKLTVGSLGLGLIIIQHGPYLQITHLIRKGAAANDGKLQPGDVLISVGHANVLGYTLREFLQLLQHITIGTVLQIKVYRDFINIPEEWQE
MAGI2_3, Q86UL8, sequence (Q86UL8 600-682): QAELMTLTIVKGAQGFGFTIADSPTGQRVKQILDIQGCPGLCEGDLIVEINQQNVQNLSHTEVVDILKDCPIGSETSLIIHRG
MAGI1_6, Q96QZ7, sequence (Q96QZ7 1146-1238): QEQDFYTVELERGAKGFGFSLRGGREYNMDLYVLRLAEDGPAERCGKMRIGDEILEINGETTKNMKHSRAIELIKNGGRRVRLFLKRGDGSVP
RIMS2, Q9UQ26, sequence (Q9UQ26 637-758): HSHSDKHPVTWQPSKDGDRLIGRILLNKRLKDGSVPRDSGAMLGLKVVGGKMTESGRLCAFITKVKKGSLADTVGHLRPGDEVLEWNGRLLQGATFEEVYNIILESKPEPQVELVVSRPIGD
LMO7, Q8WWI1, sequence (Q8WWI1 1037-1138): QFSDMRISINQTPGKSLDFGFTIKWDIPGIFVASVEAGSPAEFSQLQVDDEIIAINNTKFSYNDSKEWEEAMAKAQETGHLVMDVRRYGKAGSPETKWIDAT

B1: MUC3B, MUC3A, Q02505;Q9H195 (peptide)
chain: KRPEMTSSSV
pKd (MAGI2_3, Q86UL8; [1]): below the threshold | pKd (SNX27, Q96L92; [1]): 5.03

B2: DLGAP4, Q9Y2H0 (peptide)
chain: IYVPEAQTRL
pKd (Inadl_5, Q8NI35; [2]): below the threshold | pKd (MAGI2_3, Q86UL8; [2]): below the threshold | pKd (SNX27, Q96L92; [2]): 5.41

B3: LRP4, O75096 (peptide)
chain: ERKLSSESQV
pKd (Inadl_5, Q8NI35; [2]): below the threshold | pKd (MAGI2_3, Q86UL8; [2]): below the threshold | pKd (SNX27, Q96L92; [2]): 4.75

B4: ARHGAP17, Q68EM7 (peptide)
chain: IDNDTESTAL
pKd (Inadl_5, Q8NI35; [2]): below the threshold | pKd (MAGI2_3, Q86UL8; [2]): below the threshold | pKd (SNX27, Q96L92; [2]): 4.97

B5: CNKSR2, Q8WXI2 (peptide)
chain: HTHSYIETHV
pKd (Inadl_5, Q8NI35; [3]): below the threshold | pKd (MAGI2_3, Q86UL8; [3]): 3.98 | pKd (SNX27, Q96L92; [3]): 5.7

B6: KCNT2, Q6UVM3 (peptide)
chain: GQDSREETQL
pKd (Inadl_5, Q8NI35; [2]): below the threshold | pKd (MAGI2_3, Q86UL8; [2]): below the threshold | pKd (SNX27, Q96L92; [2]): 5.27

B7: NF2, P35240 (peptide)
chain: KSRVAFFEEL
pKd (MAGI2_3, Q86UL8; [1]): 3.55 | pKd (SNX27, Q96L92; [1]): 3.7

B8: VANGL1, Q8TAA9 (peptide)
chain: VLRLQSETSV
pKd (Inadl_5, Q8NI35; [2]): below the threshold | pKd (MAGI2_3, Q86UL8; [2]): below the threshold | pKd (SNX27, Q96L92; [2]): 5.7

B9: CYSLTR2, Q9NS75 (peptide)
chain: SVWLRKETRV
pKd (SNTB2, Q13425): 5.14 | pKd (MAGI3_6, Q5TCQ9): below the threshold | pKd (NHERF3_2, Q5T2W1): below the threshold | pKd (AHNAK2, Q8IVF2): below the threshold | pKd (Inadl_5, Q8NI35; [2]): 3.62 | pKd (MAGI1_6, Q96QZ7): below the threshold | pKd (MAGI2_3, Q86UL8; [2]): 4.73 | pKd (MPP5, Q8N3R9): below the threshold | pKd (LMO7, Q8WWI1): below the threshold | pKd (SHANK3, Q9BYB0): below the threshold | pKd (TJP1_1, Q07157): 4.78 | pKd (PDZD2_4, O15018): 4.48 | pKd (PDZD2_6, O15018): below the threshold | pKd (PDZD9, Q8IXQ8): below the threshold | pKd (RGS12, O14924): below the threshold | pKd (PDZD2_3, O15018): below the threshold | pKd (RIMS2, Q9UQ26): below the threshold | pKd (MLLT4, P55196): below the threshold | pKd (PDZD11, Q5EBL8): below the threshold | pKd (SYNPO2L, Q9H987): below the threshold | pKd (CARD14, Q9BXL6): below the threshold | pKd (PDZD8, Q8NEN9): below the threshold | pKd (SNX27, Q96L92; [2]): 4.95 | pKd (PDZD2_5, O15018): below the threshold

B10: GRASP, Q7Z6J2 (peptide)
chain: RSLEEEESQL
pKd (SNTB2, Q13425): below the threshold | pKd (MAGI3_6, Q5TCQ9): 4.14 | pKd (NHERF3_2, Q5T2W1): below the threshold | pKd (AHNAK2, Q8IVF2): 4.3 | pKd (Inadl_5, Q8NI35; [2]): below the threshold | pKd (MAGI1_6, Q96QZ7): below the threshold | pKd (MAGI2_3, Q86UL8; [2]): 3.65 | pKd (MPP5, Q8N3R9): below the threshold | pKd (LMO7, Q8WWI1): 4.14 | pKd (SHANK3, Q9BYB0): 5.24 | pKd (TJP1_1, Q07157): below the threshold | pKd (PDZD2_4, O15018): below the threshold | pKd (PDZD2_6, O15018): below the threshold | pKd (PDZD9, Q8IXQ8): below the threshold | pKd (RGS12, O14924): below the threshold | pKd (PDZD2_3, O15018): below the threshold | pKd (RIMS2, Q9UQ26): below the threshold | pKd (MLLT4, P55196): below the threshold | pKd (PDZD11, Q5EBL8): below the threshold | pKd (SYNPO2L, Q9H987): below the threshold | pKd (CARD14, Q9BXL6): below the threshold | pKd (PDZD8, Q8NEN9): below the threshold | pKd (SNX27, Q96L92; [2]): 5.69 | pKd (PDZD2_5, O15018): 4.22

B11: HPV67-E6, A4U7F2 (peptide)
chain: SRPQRTQTQV
pKd (SNTB2, Q13425): below the threshold | pKd (MAGI3_6, Q5TCQ9): below the threshold | pKd (NHERF3_2, Q5T2W1): below the threshold | pKd (AHNAK2, Q8IVF2): below the threshold | pKd (Inadl_5, Q8NI35; [2]): below the threshold | pKd (MAGI1_6, Q96QZ7): below the threshold | pKd (MAGI2_3, Q86UL8; [2]): below the threshold | pKd (MPP5, Q8N3R9): below the threshold | pKd (SHANK3, Q9BYB0): below the threshold | pKd (TJP1_1, Q07157): below the threshold | pKd (PDZD2_4, O15018): below the threshold | pKd (PDZD2_6, O15018): below the threshold | pKd (PDZD9, Q8IXQ8): below the threshold | pKd (RGS12, O14924): below the threshold | pKd (PDZD2_3, O15018): below the threshold | pKd (RIMS2, Q9UQ26): below the threshold | pKd (MLLT4, P55196): below the threshold | pKd (PDZD11, Q5EBL8): below the threshold | pKd (SYNPO2L, Q9H987): below the threshold | pKd (CARD14, Q9BXL6): below the threshold | pKd (PDZD8, Q8NEN9): below the threshold | pKd (SNX27, Q96L92; [2]): 3.98 | pKd (PDZD2_5, O15018): below the threshold

B12: MYO18A, Q92614 (peptide)
chain: TEAKLTETNA
pKd (Inadl_5, Q8NI35; [3]): below the threshold | pKd (MAGI2_3, Q86UL8; [3]): below the threshold | pKd (SNX27, Q96L92; [3]): below the threshold

B13: SLC1A5, Q15758 (peptide)
chain: TVASEKESVM
pKd (Inadl_5, Q8NI35; [2]): below the threshold | pKd (MAGI2_3, Q86UL8; [2]): below the threshold | pKd (SNX27, Q96L92; [2]): 5.29

B14: AXIN1_int, O15169 (peptide)
chain: TLSLTDSSVDGIPPYR
pKd (Inadl_5, Q8NI35; [4]): below the threshold | pKd (MAGI2_3, Q86UL8; [4]): below the threshold | pKd (SNX27, Q96L92; [4]): below the threshold
